Series [1] concerns the molecule itself. Description: cryo-EM structure; purified AtOSCA3.1 in a detergent environment; two conformations (contracted, extended) in one data set.
Series [2] concerns the molecule itself. Briefly: SEC; fluorescence-detection SEC (FSEC) of detergent-solubilised Expi293F cells (1% LMNG, 0.1% CHS; also DDM or GDN), Superose 6 increase 5/150 in TBS (20 mM Tris pH 8.0, 150 mM NaCl) with 10 uM LMNG, GFP fluorescence detected. Background: SEC sorts molecules by how far they enter the pores of the column.
Series [3] deals with the molecule itself. Description: cryo-EM structure; purified AtOSCA1.1 reconstituted in MSPE3D1 lecithin nanodiscs, TBS.

B1: AtOSCA3.1 (natural protein, Arabidopsis thaliana)
chain: MEFGSFLVSLGTSFVIFVILMLLFTWLSRKSGNAPIYYPNRILKGLEPWEGTSLTRNPFAWMREALTSSEQDVVNLSGVDTAVHFVFLSTVLGIFACSSLLLLPTLLPLAATDNNIKNTKNATDTTSKGTFSQLDNLSMANITKKSSRLWAFLGAVYWISLVTYFFLWKAYKHVSSLRAQALMSADVKPEQFAILVRDMPAPPDGQTQKEFIDSYFREIYPETFYRSLVATENSKVNKIWEKLEGYKKKLARAEAILAATNNRPTNKTGFCGLVGKQVDSIEYYTELINESVAKLETEQKAVLAEKQQTAAVVFFTTRVAAASAAQSLHCQMVDKWTVTEAPEPRQLLWQNLNIKLFSRIIRQYFIYFFVAVTILFYMIPIAFVSAITTLKNLQRIIPFIKPVVEITAIRTVLESFLPQIALIVFLAMLPKLLLFLSKAEGIPSQSHAIRAASGKYFYFSVFNVFIGVTLAGTLFNTVKDIAKNPKLDMIINLLATSLPKSATFFLTYVALKFFIGYGLELSRIIPLIIFHLKKKYLCKTEAEVKEAWYPGDLSYATRVPGDMLILTITFCYSVIAPLILIFGITYFGLGWLVLRNQALKVYVPSYESYGRMWPHIHQRILAALFLFQVVMFGYLGAKTFFYTALVIPLIITSLIFGYVCRQKFYGGFEHTALEVACRELKQSPDLEEIFRAYIPHSLSSHKPEEHEFKGAMSRYQDFNAIAGV
notes: AtOSCA3.1 from Arabidopsis thaliana, UniprotKB Q9C8G5; also called contracted state of AtOSCA3.1; extended state of AtOSCA3.1; source: Expi293F infected by baculovirus, purified (DDM, TALON)
The term stoichiometry N denotes the number of molecules, sites or subunits per partner or assembly. Regarding B1, the “stoichiometry N” value in series [1] was determined as 2.

B2: AtOSCA1.1-CGFP (natural protein, Arabidopsis thaliana)
chain: MATLKDIGVSAGINILTAFIFFIIFAFLRLQPFNDRVYFSKWYLRGLRSSPASGGGFAGRFVNLELRSYLKFLHWMPEALKMPERELIDHAGLDSVVYLRIYWLGLKIFAPIAMLAWAVLVPVNWTNNELELAKHFKNVTSSDIDKLTISNIPEGSNRFWAHIIMAYAFTIWTCYMLMKEYETVANMRLQFLASEGRRPDQFTVLVRNVPPDPDETVSELVEHFFLVNHPDNYLTHQVVCNANKLADLVSKKTKLQNWLDYYQLKYTRNNSQIRPITKLGCLGLCGQKVDAIEHYIAEVDKTSKEIAEERENVVNDQKSVMPASFVSFKTRWAAAVCAQTTQTRNPTEWLTEWAAEPRDIYWPNLAIPYVSLTVRRLVMNVAFFFLTFFFIIPIAFVQSLATIEGIEKVAPFLKVIIEKDFIKSLIQGLLAGIALKLFLIFLPAILMTMSKFEGFTSVSFLERRSASRYYIFNLVNVFLGSVIAGAAFEQLNSFLNQSPNQIPKTIGMAIPMKATFFITYIMVDGWAGVAGEILMLKPLIIYHLKNAFLVKTEKDREEAMNPGSIGFNTGEPQIQLYFLLGLVYAPVTPMLLPFILVFFALAYVVYRHQIINVYNQEYESAAAFWPDVHGRVITALIISQLLLMGLLGTKHAASAAPFLIALPVITIGFHRFCKGRFEPAFVRYPLQEAMMKDTLERAREPNLNLKGYLQDAYIHPVFKGGDNDDDGDMIGKLENEVIIVPTKRQSRRNTPAPSRISGESSPSLAVINGKEV
notes: AtOSCA1.1 from Arabidopsis thaliana, UniprotKB Q9XEA1; cDNA cloned into a C-terminally GFP-tagged BacMam vector; His8 and FLAG lie after GFP in the vector; also called Arabidopsis thaliana OSCA1.1; source: Expi293F, transfected, solubilised in LMNG-CHS, in cleared lysate; not shown: GFP, C-terminal, kept
Turning to B2, in series [2], the “stoichiometry N” value is 2.

B3: AtOSCA1.1 in lipid nanodisc (natural protein, Arabidopsis thaliana)
chain: B2 chain
notes: AtOSCA1.1 from Arabidopsis thaliana, UniprotKB Q9XEA1; GFP removed by HRV3C protease; His8 and FLAG lie after GFP in the vector and were probably removed with it; Embedded in MSPE3D1 lecithin nanodiscs; also called extended state of AtOSCA1.1; not shown: GFP, C-terminal, cleaved
As for B3, the “stoichiometry N” value in series [3] worked out at 2.

For the origin of these results see paper PMC10319725, “A mechanical-coupling mechanism in OSCA/TMEM63 channel mechanosensitivity” (Nature Communications, 2023).
